Results from patent publication US20190142868A1, “METHODS OF TREATING DISEASES ASSOCIATED WITH ILC3 CELLS” (Instituto de Medicina Moleccular, priority 2016, published 2019).

Tests used:
RET = conditions: cited from earlier work; for RET autophosphorylation: Tokugawa et al. 2003 (XIB4035, GDNF), Akeno-Stuart et al. 2007 (AST 487)
[1] = tested on: neurosphere-derived glial cells; assay: Activation of neurosphere-derived glial cells, alone or co-cultured with ILC3; assay type: cell-based, mice; conditions: for innate Il22 in ILC3 co-cultured with glial cells: 24 hours of co-culture, MYD88 dependent; for GFL expression in glial cells: activation of neurosphere-derived glial cells
Protocol: Neurosphere-derived glial cells were obtained as previously described^60. Briefly, total intestines from E14.5 C57BL/6J and Myd88^−/− mice were digested with collagenase D (0.5 mg/mL; Roche) and DNase I (0.1 mg/mL; Roche) in DMEM/F-12, GlutaMAX, supplemented with 1% hepes, streptomycin/penicillin and 0.1% β-mercaptoethanol (Gibco) for approximately 30 minutes at 37° C. under gentle agitation. Cells were cultured during 1 week in a CO2 incubator at 37° C. in DMEM/F-12, GlutaMAX™, streptomycin and penicillin and 0.1% P3-mercaptoethanol (Gibco) supplemented with B27 (Gibco), EGF (Gibco) and FGF2 (Gibco) 20 ng/mL. After 1 week of culture cells were treated with 0.05% trypsin (Gibco), transferred into PDL (Sigma-Aldrich) coated plates and culture in DMEM supplemented with 10% FBS, 1% hepes, glutamine, streptomycin and penicillin and 0.1% β-mercaptoethanol (Gibco) until confluence. Glial cells were activated with TLR2 (5 μg/ml) (Pam3CSK4), TLR3 ([…]) (PolyI:C), TLR4 (50 ng/ml) (LPS), TLR9 ([…]) (DsDNA-EC) ligands from Invivogen and IL-1β (10 ng/mL) (401ML005), IL-18 (50 ng/mL) (B002-5), IL-33 (0.1 ng/mL) (3626ML) recombinant proteins from R&D Systems. Cells were also co-cultured with purified ILC3 from WT and Illb deficient mice. IL-22 expression in glial-ILC3 co-cultures upon TLR4 activation was also performed using GDNF ([…]) (AB-212-NA), NRTN ([…]) (AF-387sp) and ARTN (0.3 μg/mL) (AF-1085-sp) blocking antibodies. Cells were analysed after 24 hours of co-culture.

Molecule	RET autophosphorylation (RET)	activation of downstream effectors of RET (RET; Akeno-Stuart et al. 2007)	innate Il22 in ILC3 co-cultured with glial cells [1]	GFL expression in glial cells [1]
CCN(CC)CCCC(C)Nc1cc(/C=C/c2ccccc2Cl)nc2cc(Cl)ccc12 (centres unmarked) [XIB4035, N(4)-(7-chloro-2-[(E)-2-(2-chloro-phenyl)-vinyl]-quinolin-4-yl)-N(1),N(1)-diethyl-pentane-1,4-diamine]	induced	–	–	–
CCN1CCN(Cc2ccc(NC(=O)Nc3ccc(Oc4cc(NC)ncn4)cc3)cc2C(F)(F)F)CC1 [AST 487, 1-[4-[(4-ethylpiperazin-1-yl)methyl]-3-(trifluoromethyl)phenyl]-3-[4-[6-(methylamino)pyrimidin-4-yl]oxyphenyl]urea]	inhibit	inhibit	–	–
IL-33: recombinant protein from R&D Systems (3626ML), alarmin (protein, UniProt Q8BVZ5 1-266, looked up) Interleukin-33: MRPRMKYSNSKISPAKFSSTAGEALVPPCKIRRSQQKTKEFCHVYCMRLRSGLTIRKETSYFRKEPTKRYSLKSGTKHEENFSAYPRDSRKRSLLGSIQAFAASVDTLSIQGTSLLTQSPASLSTYNDQSVSFVLENGCYVINVDDSGKDQEQDQVLLRYYESPCPASQSGDGVDGKKLMVNMSPIKDTDIWLHANDKDYSVELQRGDVSPPEQAFFVLHKKSSDFVSFECKNLPGTYIGVKDNQLALVEEKDESCNNIMFKLSKI	–	–	induced robust	efficiently controlled
IL-1β: recombinant protein from R&D Systems (401ML005), alarmin (protein, UniProt P10749 118-269, looked up) Interleukin-1 beta: VPIRQLHYRLRDEQQKSLVLSDPYELKALHLNGQNINQQVIFSMSFVQGEPSNDKIPVALGLKGKNLYLSCVMKDGTPTLQLESVDPKQYPKKKMEKRFVFNKIEVKSKVEFESAEFPNWYISTSQAEHKPVFLGNNSGQDIIDFTMESVSS	–	–	induced robust	efficiently controlled
GDNF: Glial cell-derived neurotrophic factor, a GFRα1 ligand (protein, UniProt P39905 78-211, looked up) Glial cell line-derived …: SPDKQMAVLPRRERNRQAAAANPENSRGKGRRGQRGKNRGCVLTAIHLNVTDLGLGYETKEELIFRYCSGSCDAAETTYDKILKNLSRNRRLVSDKVGQACCRPIAFDDDLSFLDDNLVYHILRKHSAKRCGCI	induced	–	–	–
